Data: the DeepSol protein solubility set

assay: soluble on expression in E. coli; label from the status in PepcDB or PDB records

Row | Sequence | soluble on expression in E. coli
1 | MNIRPLHDKLIVERLEVENKSEGGIVLTSQSVKKSNRGKVVAVGLGRPLKNGDRARMEVKTGDQIIFNDGYGVKTEKVDGKEYLILSESDVLAIVE | soluble
2 | MIEVIFLGTGGIKPTPERNVPSIAIKIGGEIILFDVGEGTLRQMEIARISPMKIKRVFITHFHGDHYLGLPALIQTMSLWKRKDPLHIYGPEGSSTFLQNLLNSGYFAPSFDILVHEISGKSRLKFKEYEVWAFEVSHGVPALGYVFKEKDKRGNFNLKKIKELGLEPGPWMKELERQKIIEINGKIVRLLEVTGPKKRGAKVVYSGDTEPCDEVIEFSRRGTLLIHEATYVNEEDRKDSYHTTIEEACEIWKKSKARKLVLFHRSPRYSFKEYKEKALSICPQAIIPRDFDRIAIEGAGDVLFKIR | soluble
3 | GPGSMDTIEFLHTVGKLKETMRTGWVETGVHQPESVSDHMYRAALLCMMCPDSSLNRDRLVRMALCHDVGESIIGDISPKMGVPAAEKHKREKEAILHLRGLLPHDSPLEKELQELWEEYETQGTPEARFLRDIDLLEMVTQAHAYEKTHPELNFDSFYVSGEKIKHPWVRSIYDNLVSTRPSRKS | soluble
4 | MQVSVTGDFVGHIQELIRTEVLPYQWEALNDQIAGAEPSHCLDNFRAAAEKKGHIQFHGQPFQDSDIYKWIEAAAYTLAWHPDSDLEAKADQAIELICGAQQPDGYLNTYFILTGAQRWTHLLDGHELYCAGHLMEAAVAYYHATGKDKLLKAAQKLADHIADVFGTSPGKIPGYPGHPEVELALIRLFEATGNIKYQQLAQYFICQRGASPSIFRKEADQFGWDWADSPFQFQFYQAGKPILEQTELEGHAVRALYLCCGIADVAARTQDAALLETCRRLWEDLTQTKLYITGGAGSSVYGEAFTFAYDLPNDTAYAETCAAVAVCFFAQRMMKISPSGAYGDVLEQALYNGVLSGMALDGKSFFYVNPLEVVPEACQKDQRKKHVKPIRQKWFACACCPPNLARLFASIGGYLHFIRAETLYTNLYVTSTSEFTFQGLPIKLHMDSAYPFDEKIHISLSLPRPMEFSYAVRIPAWCADYHVLINGKICAGTLKDGFLYLHRCWRDGDEVELTLSMPVRVVRANSLVRENIGKSAICRGPIVYCMEQLEHHHHHH | not soluble
5 | MGSDKIHHHHHHMKWEEKRDMVKIATWYYHYGWTQAQIAKKIGISRSIISKTLQRAKDLGIVEIFIKDETYYTVDLEQKLEEKFGLEEAIVVATHDMSEEEALNFLAKEAAYTLSKRIAKVKTLGISWGKTIRKFANEFPFIPHKDLTIIPLIGGMGSSDIDLHSNQICYDLKKKMKCHSKYLYAPALVEDTEMKTDLSKNKYISEVLEEGKTVDMAIVGVSSPYNHSTMEEIGYINSEDIEELRYKDVVGDINSRFFTADGKEAKTEINTHVIGLSLEELKNIPTVVALANGLQKKEALVAALNAGLIDVIVITDRMAEYILQKND | not soluble
6 | MLPHTGLFLLGKVALQMRIRRRLKQGVIMAKTNNKPETAETAAPSFEDIKAELDAVQAELAAARNDVEMLTTALEKAEDDKKALSAELAELKVQHTQRAADALADSRDVMLVSTGADGKEFWRGGLLFDGGWREVKRAEVGEAVWKAICAEPMLQRKAVE | not soluble
7 | PDIDGGILFLEDVGEQPYRIERMLNTLYLSGILKKQRAIVFGNFRMEKIRDVYDPSYDFSAVANHVSRTAKIPVLTGFPFGHIADKITFPLGAHARIRMNGNSGYSVAFEGYPTLDASALTLDTLLPPPDLPIFPESGVADISE | not soluble
8 | MVPSFPFQRLPNKPFQNVLKSMSVGNLLSYSMCSEASKSHVTNLKVKINSFEINVTENVHLFVKSEHGPTFNFRTVTSANGNISDDVTPANENEKHRWYKKGFELRNWIEHFLSVLNHSKIDKLNFISQQGERSKNDYLRDSLEGFKVDCFTVQQCSESYQRSIFRNFSPINTFIICATGAESTKAISSALPHNLKDFGYVSRGATWNFSLDNLLLSNSRNLVVIEARFSFPDINMFLKHWLNGSNRRLTNAYFIYTTPLVSEDISKGLPFSIPSEAEISKLPSDLMEHRETMFQLKRKFDSTATIVLKQNNGKHVFNMFVEHF | not soluble
9 | MFRQLKKNLVATLIAAMTIGQVAPAFADSADTLPDMGTSAGSTLSIGQEMQMGDYYVRQLRGSAPLINDPLLTQYINSLGMRLVSHANSVKTPFHFFLINNDEINAFAFFGGNVVLHSALFRYSDNESQLASVMAHEISHVTQRHLARAMEDQQRSAPLTWVGALGSILLAMASPQAGMAALTGTLAGTRQGMISFTQQNEQEADRIGIQVLQRSGFDPQAMPTFLEKLLDQARYSSRPPEILLTHPLPESRLADARNRANQMRPMVVQSSEDFYLAKARTLGMYNSGRNQLTSDLLDEWAKGNVRQQRAAQYGRALQAMEANKYDEARKTLQPLLAAEPGNAWYLDLATDIDLGQNKANEAINRLKNARDLRTNPVLQLNLANAYLQGGQPQEAANILNRYTFNNKDDSNGWDLLAQAEAALNNRDQELAARAEGYALAGRLDQAISLLSSASSQVKLGSLQQARYDARIDQLRQLQERFKPYTKMLEHHHHHH | soluble
10 | MHYCEPGWFELIRHRLAFFKDNAAPFKILFLADLHYSRFVPLSLISDAIALGIEQKPDLILLGGDYVLFDMSLNFSAFSDVLSPLAECAPTFACFGNHDRPVGTEKNHLIGETLKSAGITVLFNQATVIATPNRQFELVGTGDLWAGQCKPPPASEANLPRLVLAHNPDSKEVMRDEPWDLMLCGHTHGGQLRVPLVGEPFAPVEDKRYVAGLNAFGERHIYTTRGVGSLYGLRLNCRPEVTMLELVLEHHHHHH | not soluble
11 | MSENIRESISAKTLSKDQMETSYVSLKTWIEDSLDLFKNDLLPLLYPLFIHIYFDLIQQNKTDEAKEFFEKYRGDHYNKSEEIKQFESIYTVQHIHENNFAYTFKNSKYHLSMGRYAFDLLINFLEERNLTYILKILNQHLDIKVYVGPKSEERPQGIETSVVDAEIDLTTFLVSRECEDAILGDEQYRYDHLETYVLQLRKQREMKPKDSVYKPNASQIHAEIEKLKDLCKRVAVNKNNLPSICCYTIHNTYEGLTAAEISNDLKLMACGFKDSYVEVYSLTNESLKKLKSSSELAKSDIKTLNEEKFEEVGSSYKLVGHSGPVYGLKFFSSNKFLVSSSQDCTVCLWSLDLLCLLAVYKAHAFPVWCVDVAPNDYFFASGAGDRQAIVWSVMTSKPERLIISSLSDVTAVKFHPNSSYLFTGSSDHRVRMHDISTASVVRIFCGHTDTVTCMDVSHCGKFLASGSKDRTVLLWDIQSSKLLGKYVGHENTVFSVSFCFYGSVLASCGADNSVRLWDRTDHKGGCLGTYYTKNTPLLCVKFGYRNIISCTGPFIS | soluble
12 | KKTSGNQDEILVIRKGWLTINNIGIMKGGSKEYWFVLTAENLSWYKDDEEKEKKYMLSVDNLKLRDVEKGFMSSKHIFALFNTEQRNVYKDYRQLELACETQEEVDSWKASFLRAGVYPERV | soluble
13 | MDAFKRNLEKLAELAIRVGLNLEKGQEVIATAPIEAVDFVRLLAEKAYREGASLFTVIYGDQELARKRLALAPEEGLDKAPAWLYEGMARAFREGAARLAVSGSDPKALEGLPPEKVGRAQKANARAYKPALEAITEFVTNWTIVPFAHPGWARAVFPGLPEEEAVRRLWEAIFQATRADQEDPIAAWEAHNRALHEKVAYLNARRFHALHFKGPGTDLVVGLAEGHLWQGGATATKGGRLCNPNLPTEEVFTAPHRERVEGVVRASRPLALGGTLVEGIFARFERGFAVEVRAEKGEEVLRRLLDTDEGARRLGEVALVPADNPIAKTGLVFFDTLFDENAASHIAFGQAYQENLEGRPSGEAFRKRGGNESLVHVDWMIGSEEMDVDGLYEDGTRTPLMRRGRWVV | soluble
14 | MIEVKPETPDDWWEVEALYDLCFAPGRTALSSYRLRDDVPPVAGLSLVARDSDGTLAGAIRFWPVHVGDLDALLLGPVAVHPTHQGEGLGGFLIQEGLEAGREGGWARVMLVGDAPYYSRFGFARLEGVEMPPPTNPDRVLGLEL | not soluble
15 | GPLGSMKLRVENPKKAQKHFVQNLNNVVFTNKELEDIYNLSNKEETKEVLKLFKLKVNQFYRHAFGIVNDYNGLLEYKEIFNMMFLKLSVVFDTQRKEANNVEQIKRNIAILDEIMAKADNDLSYFISQNKNFQELWDKAVKLTKEMKIKLKGQKLDLRDGEVAINKVRELFGSDKNVKELWWFRSLLVKGVYLIKRYYEGDIELATTSDFAKAVFE | soluble
16 | MSLSDGAVVRALVLEAPRRLVVRQYRLPRIGDDDALVRVEACGLCGTDHEQYTGELAGGFAFVPGHETVGTIAAIGPRAEQRWGVSAGDRVAVEVFQSCRQCANCRGGEYRRCVRHGLADMYGFIPVDREPGLWGGYAEYQYLAPDSMVLRVAGDLSPEVATLFNPLGAGIRWGVTIPETKPGDVVAVLGPGIRGLCAAAAAKGAGAGFVMVTGLGPRDADRLALAAQFGADLAVDVAIDDPVAALTEQTGGLADVVVDVTAKAPAAFAQAIALARPAGTVVVAGTRGVGSGAPGFSPDVVVFKELRVLGALGVDATAYRAALDLLVSGRYPFASLPRRCVRLEGAEDLLATMAGERDGVPPIHGVLTEGHHHHHH | not soluble
17 | MGSDKIHHHHHHMNIVTLISWDFKRNNESFQRAIINGYDYWSRILDDHGVEKYVILLTCNRVELYYRGDPFDVQEKGYNIISDDMAINHLFHVAAGLDSMSIGENEVLKQVKQAYEKSSSMGKSDKFLSLIFQRAISVGKLVRSKTGIGKGKVSIPSIVYDIVRKNGGNKILLVGNGMLASEIAPYFSYPQYKVTVAGRNIDHVRAFAEKYEYEYVLINDIDSLIKNNDVIITATSSKTPIVEERSLMPGKLFIDLGNPPNIERGNNVITLDEIYEISKKNEMLREEKINQAEILIENEMKATMNKIKDLMIDDIFSQFYRFASVVQTMEIQKFRKMHPEVNENDLEALAHSIINKILNVPVTTLKAVSRSQGNSDFNRLFESFSSNFNDIVSAALQSYEGLRDTQSLRDRTRQLLQKS | not soluble
18 | MIDMFPMEKGEEQETYELIVRVFHKYVAPVYSENGVARFLGMLSPEGLSEMNNGKNSFVIVARDQSKIIGMISVINDSHIALFFVSPRYQGKGIGKNILDEAIKNCLNRNPELSAVTVSSSPNSKSFYEEAGFEVIGLEHHHHHH | soluble
19 | MDNGTDSSTSKFVPEYRRTNFKNKGRFSADELRRRRDTQQVELRKAKRDEALAKRRNFIPPTDGADSDEEDESSVSADQQFYSQLQQELPQMTQQLNSDDMQEQLSATVKFRQILSREHRPPIDVVIQAGVVPRLVEFMRENQPEMLQLEAAWALTNIASGTSAQTKVVVDADAVPLFIQLLYTGSVEVKEQAIWALGNVAGDSTDYRDYVLQCNAMEPILGLFNSNKPSLIRTATWTLSNLCRGKKPQPDWSVVSQALPTLAKLIYSMDTETLVDACWAISYLSDGPQEAIQAVIDVRIPKRLVELLSHESTLVQTPALRAVGNIVTGNDLQTQVVINAGVLPALRLLLSSPKENIKKEACWTISNITAGNTEQIQAVIDANLIPPLVKLLEVAEYKTKKEACWAISNASSGGLQRPDIIRYLVSQGCIKPLCDLLEIADNRIIEVTLDALENILKMGEADKEARGLNINENADFIEKAGGMEKIFNCQQNENDKIYEKAYKIIETYFGEEEDAVDETMAPQNAGNTFG | soluble
20 | MKIEDIYQFFENPPPTYLCQEVAICYILYVLLQGESYGTELIQQLETEHPTYRLSDTVLYSAIKFLEDNRAITGYWKKLEGRGRPRRMYQVSPEWQHQAEDLARLWQNYIYVRTN | soluble
21 | PDDVSVLAANGEKAKLSGGFFASEKALTLPDGVNQVVFRYAPYFNQGNDRLSVESDVIVARFDTANAELTIEVPKYRNMRDAEENIKDLDWKLVDGSGKAVAVDQDKLIKPGMQIGRDYVREIEDYNR | not soluble
